Among the data in article PMC11388019, “Autoregulatory mechanism of enzyme activity by the nuclear localization signal of lysine-specific demethylase 1 [drawing 1]” (The Journal of Biological Chemistry, 2024) are Kd, Ki and IC50 of inhibition of ΔN LSD1-CoREST demethylation of H3K4me2 nucleosomes (quantitative Western blot, NLS peptide 10-400 μM) values, retold here.

For test [1], the target named is biotinylated recombinant human nucleosome (unmodified, 147 bp 601 DNA) (human) (UniProt P68431). Kind of test: SPR; biotinylated recombinant human nucleosomes (147 bp 601 DNA) immobilised on a streptavidin chip SA at 4000-5000 RU; LSD1-CoREST injected at 5-2000 nM (full length up to 500 nM), 40 μl/min; Biacore 3000, 298 K; running buffer 10 mM Tris, 100 mM NaCl, 1 mM EDTA, 2 mM TCEP, 0.005% Tween 20, pH 7.4; apparent Kd. For orientation: Surface plasmon resonance follows binding to a sensor surface in real time, without labels.

Test [2] deals with biotinylated NT-LSD1 (residues 100–151) (human). Kind of test: SPR; biotinylated NT-LSD1 immobilised at 560 RU; ΔN LSD1-CoREST injected at 25-1000 nM, 40 μl/min, in running buffer.
Test [3] concerns the target ΔN LSD1 (171–852)–CoREST (286–482) complex (human) (UniProt O60341). Kind of test: enzyme inhibition kinetics (peroxidase-coupled demethylase assay); 0.3 μM ΔN LSD1-CoREST, 50 mM Hepes (Na) pH 7.5, 25 °C; H3K4me2 peptide (1-21) substrate 10-60 μM; NLS 0-10 μM or NLSp∗ 0-100 μM; fit to competitive inhibition; Ki called apparent in the legend.
For test [4] the target is unchanged.

With “full-length LSD1 (1–852)-CoREST (286–482) complex (from UniProt O60341 1-852)”, the Kd in test [1] amounted to 0.103 µM.
Turning to “ΔN LSD1 (171–852)–CoREST (286–482) complex (from UniProt O60341 171-852)”, the figures for the Kd in test [1] and in test [2] were 1.76 µM and 0.571 µM, respectively.
Consider NLS peptide (LSD1 aa 107–120), for which the Ki in test [3] came to 3.3 µM. This substance also registered an IC50 of inhibition of ΔN LSD1-CoREST demethylation of H3K4me2 nucleosomes (quantitative Western blot, NLS peptide 10-400 μM) in test [4] of 30.4 µM.
Turning to “phosphomimic NLS peptide (aa 107–120, T110D/S111D)”, the Ki in test [3] was 38.7 µM.
